Assay results taken from US20210072252A1 (WASHINGTON UNIVERSITY, published 2021).

How the values were obtained:
[1] = target: T1, peptide with N-terminal histidine; assay: biolayer interferometry kinetics; reference: truncated wild-type HisRS fragment
T1 construct: also called peptides with N-terminal histidine residues

[2] = target: T1, peptide with N-terminal histidine; assay: biolayer interferometry (Blitz), peptide-coated sensor, NAAB in 1x PBS, 1:1 fit, kd/ka

B1: engineered HisNAAB (3-180) (designed binder)
chain: KNIQAIRGMNDYLPGETAIWQRIEGTLKNVLGSYGYSEIRLPIVEQTPLFKRAIGEVTDVVEKEMYTFEDRNGDSLTLRPEGTAGCVRAGIEHGLLYNQEQRLWYIGPMFGNAPQFHQLGCEVFGLQGPDIDAELIMLTARWWRALGISEHVTLELNSIGSLEARANYRDA
fold improvement in binding affinity against the wild-type fragment [1]: ~10 fold
Kd [2]: 98.7 µM
